The record followed here is patent US20110160439A1 (H LUNDBECK A S, published 2011).

For test [1], the target named is T1, Soluble Sortilin (sSortilin), luminal domain of human Sortilin fused C-terminally to His6 (human, UniProt Q99523 78-755).
T1 construct: Expressed in CHO-K1 cells; The propeptide is removed in the mature receptor; also called wt sSortilin; wtSortilin
T1 sequence: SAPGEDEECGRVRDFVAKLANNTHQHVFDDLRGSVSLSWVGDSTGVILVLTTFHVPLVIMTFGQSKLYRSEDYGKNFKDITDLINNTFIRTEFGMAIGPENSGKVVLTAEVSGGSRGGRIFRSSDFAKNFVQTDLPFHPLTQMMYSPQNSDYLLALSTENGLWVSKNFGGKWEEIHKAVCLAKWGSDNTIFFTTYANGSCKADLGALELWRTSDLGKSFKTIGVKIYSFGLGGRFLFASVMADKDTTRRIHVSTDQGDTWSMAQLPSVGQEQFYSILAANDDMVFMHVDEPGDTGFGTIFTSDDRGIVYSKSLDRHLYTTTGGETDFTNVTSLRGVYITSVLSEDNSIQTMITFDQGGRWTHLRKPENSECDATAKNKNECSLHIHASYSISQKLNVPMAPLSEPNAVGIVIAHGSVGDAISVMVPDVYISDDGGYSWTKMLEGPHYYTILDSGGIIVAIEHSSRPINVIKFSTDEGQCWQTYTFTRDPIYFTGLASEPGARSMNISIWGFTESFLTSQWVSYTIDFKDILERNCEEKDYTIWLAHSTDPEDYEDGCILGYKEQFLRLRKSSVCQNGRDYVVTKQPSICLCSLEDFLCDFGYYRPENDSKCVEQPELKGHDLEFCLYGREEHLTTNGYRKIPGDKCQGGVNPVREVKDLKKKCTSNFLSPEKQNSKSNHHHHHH
As to the kind of experiment: SPR (BIAcore 3000), sSortilin immobilised on CM5 chip. Here is the method: All measurements were performed on a BIAcore 3000 instrument (Biacore Sweden) maintained at 20° C. A continuous flow of buffer F (10 mM HEPES pH=7.4, 150 mM (NH₄)₂SO₄, 1.5 mM CaCl₂, 1.5 mM EGTA and 0.005% Tween-20) was passed over the CM5 chip sensor surface at 5 μl/min.

The target of a further test is T2, sSortilin S316E mutant (human, UniProt Q99523 78-755).
T2 sequence: T1 sequence with S239E
As to the kind of experiment: SPR, mutant sSortilin immobilised. The method, then: (§1) The receptors were immobilized at similar concentrations (0.06 pM/mm²) and binding was analyzed by SPR.
(§2) Surface plasmon resonance (SPR) measurements were performed on a BIAcore 2000 instrument (Biacore Sweden) equipped with CM5 sensor chips maintained at 20° C. A continuous flow of HBS buffer (10 mM HEPES pH 7.4, 3.4 mM EDTA, 150 mM NaCl, 0.005% surfactant P20) passing over the sensor surface was maintained at 5 μl/min. The carboxylated dextran matrix of the sensor chip flow cells 1-3 was activated by the injection of a solution containing 0.2 M N-ethyl-N-(3 dimethylamino-propyl)carbodiimide and 0.05MN-hydroxysuccimide in water. A sortilin solution (320 μl, 5 μg/ml in 10 mM sodium acetate pH 4.0) was then injected over flow cells 1 and 2 at a flow rate of 15 μl/min. Remaining binding sites in all three flow cells were blocked by injection (5 μl/min) of 70 μl of 1 M ethanolamine pH 8.5. […] Screening of the samples was performed by injecting aliquots of 50 μl, at concentrations of 0.1-8 μM, through all flow cells with a flow rate of 5 μl/min. Unless otherwise stated, the samples were dissolved in 10 mM HEPES pH 7.4, 150 mM NaCl, 1.5 mM CaCl2, 1 mM EGTA, 0.005% surfactant P20. Sample buffer was also used as running buffer. […]
Background: SPR reads the build-up and loss of mass on a sensor chip optically.

Test [2] concerns the target T1, Soluble Sortilin (sSortilin), luminal …. As to the kind of experiment: SPR, wt sSortilin immobilised. The method, then:
as §1, §2

Where a chain is given by its changes, count along the chain named. Where no end group is shown, it is not given here.

B1: Propeptide of Nerve Growth Factor (NGFpro), E. coli-expressed, His6 tag removed by TEV (ligand)
chain: EPHSESNVPAGHTIPQVHWTKLQHSLDTALRRARSAPAAAIAARVAGQTRNITVDPRLFKKRRLRSPRVLFSTQPPREAADTQDLDFEVGGAAPFNRTHRSKR
notes: also called pro-domain of Nerve Growth Factor; NGF prodomain
What is called Kd is the constant that tells how readily two partners part at equilibrium. Low values mean tighter binding, high ones weaker binding. B1: the Kd in test [1] is ~10 nM.

B2: GST-tagged Sortilin propeptide (other)
chain: QDRLDAPPPPAAPLPRWSGPIGVSWGLRAAAAGGAFPRGGRWRR
modifications: also: GST tag, order and linker not given here
notes: also called GST-Sort-pro; (GST)Sort-pro; not shown: glutathione S-transferase (GST) tag
Turning to B2, the binding result with sSortilin S316E mutant is “no binding”.

B3: Mature BDNF (ligand)
chain: HSDPARRGELSVCDSISEWVTAADKKTAVDMSGGTVTVLEKVPVSKGQLKQYFYETKCNPMGYTKEGCRGIDKRHWNSQCRTTQSYVRALTMDSKKRIGWRFIRIDTSCVCTLTIKRGR
B3: the binding result (with sSortilin S316E mutant; in test [2]) was “binds” each time.
